In article PMC5389796:

Experiments:
TALK-1 T3-FLAG (human) [1] = molecular target: TALK-1 T3-FLAG (human) (UniProt Q96T55)
TALK-1 T3-FLAG (human) [2] = molecular target: TALK-1 T3-FLAG (human) (UniProt Q96T55); remark: listed apart in the source
[3] = molecular target: TALK-1 T3 A277E (rs1535500)-FLAG (human) (UniProt Q96T55)

iOPN-V5 (from UniProt P10451-1 17-314) (natural protein)
change of resting membrane potential (ΔVm), TALK-1 T3 with iOPN against TALK-1 T3 with PKM2, perforated patch (TALK-1 T3-FLAG (human) [1]): -7.7 mV
resting membrane potential (Vm) of T-REx cells expressing TALK-1 T3 with iOPN, perforated patch (TALK-1 T3-FLAG (human) [1]): -80.2 mV
whole-cell K2P currents of T-REx cells with induced TALK-1 T3, increase with iOPN compared to the PKM2 control, at -60, -30, 0, 30 and 60 mV (TALK-1 T3-FLAG (human) [2]): 19.6 pA/pF
whole-cell K2P currents of T-REx cells with induced TALK-1 T3 A277E, increase with iOPN compared to the PKM2 control, at -60, -30, 0, 30 and 60 mV [3]: 18.7 pA/pF
